Data set [1] has as its target T1, human CEA (CEACAM5) on tumor cells (human, UniProt P06731 35-702).
T1 sequence (looked up): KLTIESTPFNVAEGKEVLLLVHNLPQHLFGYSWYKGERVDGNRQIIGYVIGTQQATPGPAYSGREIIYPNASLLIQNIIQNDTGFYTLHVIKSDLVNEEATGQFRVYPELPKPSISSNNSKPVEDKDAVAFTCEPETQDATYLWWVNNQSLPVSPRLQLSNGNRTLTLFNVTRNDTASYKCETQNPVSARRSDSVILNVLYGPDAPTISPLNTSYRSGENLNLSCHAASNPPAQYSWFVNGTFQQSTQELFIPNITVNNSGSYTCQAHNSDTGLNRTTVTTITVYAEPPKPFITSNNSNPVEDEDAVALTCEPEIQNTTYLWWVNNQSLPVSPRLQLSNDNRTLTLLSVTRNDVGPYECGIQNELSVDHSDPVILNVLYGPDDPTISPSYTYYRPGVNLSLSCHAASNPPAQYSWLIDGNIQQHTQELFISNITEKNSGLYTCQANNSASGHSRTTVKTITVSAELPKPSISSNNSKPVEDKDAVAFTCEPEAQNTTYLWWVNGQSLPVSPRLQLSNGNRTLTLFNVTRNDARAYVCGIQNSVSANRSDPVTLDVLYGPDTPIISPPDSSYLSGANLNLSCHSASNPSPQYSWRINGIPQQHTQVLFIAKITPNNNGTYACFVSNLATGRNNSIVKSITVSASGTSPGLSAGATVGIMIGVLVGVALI
The data set is described as follows: cell-based or functional assay.

In data set [2] the target is T2, Insulin (abs42019847).
T2 construct: Coated on the plate in the polyspecificity ELISA
Kind of data set: ELISA, insulin coated on the plate, 100 nM antibody, anti-human IgG-HRP. In general terms: An ELISA detects its analyte on a solid surface through an enzyme-linked reagent.
Procedure: (§1) (1) Antigen coating: cardiolipin (Sigma, cat. C0563), keyhole limpet haemocyanin (KLH, Sigma, H8283), LPS (Sigma, L6529), ssDNA (Sigma, D8899), dsDNA (Sigma, D4522) and Insulin (abs42019847) were plated at 50 μg/mL, 5 μg/mL, 10 μg/mL, 1 μg/mL, 1 μg/mL, g/mL, and 50 μL per well, and incubated at 4° C. overnight;
(§2) (4) 50 μl anti-human IgG-HRP conjugate (Sigma, AP113P, 1:8000 dilution) was added to each well; the plate was incubated for 1 h at room temperature and washed 6 times with 0.05% PBST;

Data set [3] concerns the molecule itself. The data set is described as follows: BLI self-interaction: antibody captured on AHQ anti-human Fc sensor, free sites blocked with human IgG, same antibody in solution.
Procedure: The bispecific antibodies were diluted to 1 μM, and the proteins were coupled to the surface of the AHQ sensor chip in PBS, and the signal value was ˜0.8 nm. […] The experimental parameters are as follows: Baseline1: 60s, Loading: 180s, Loading response: 0.8 nm, Baseline2: 180s, Association: 240s, High sensitivity kinetics: 2 Hz.
Data set [4] deals with T1, human CEA (CEACAM5) on tumor cells. Kind of data set: cell-based or functional assay. The source holds these as a separate data set.
For data set [5], the target named is T3, keyhole limpet haemocyanin (KLH, Sigma, H8283) (keyhole limpet, UniProt Q10583 17-3414; Q10584 20-3421, limits assumed).
T3 construct: Bought preparation coated on the plate in the polyspecificity ELISA
Kind of data set: ELISA, KLH coated at 5 ug/mL, 100 nM antibody, anti-human IgG-HRP.
Procedure: as §1, §2

In data set [6] the target is T4, human HER2 on tumor cells (human, UniProt P04626 23-1255). Kind of data set: cell-based or functional assay.
In data set [7] the target is T4, human HER2 on tumor cells. The data set is described as follows: cell-based or functional assay. This is another data set of the same source.
The target in data set [8] is T5, recombinant tumor antigen human HER2 (ERBB2, ACRO systems, HE2-H5212) (human, UniProt P04626 23-652).
T5 construct: Bought recombinant protein
The data set is described as follows: BLI (Octet RED96e), antibody captured on AHC anti-human Fc sensor, HER2 as analyte, 30 C, 1:1 fit. For orientation: Biolayer interferometry detects binding as a change in optical thickness at a sensor tip.
Source text: After the chip captures the bispecific antibodies, it was allowed to bind and dissociate with different concentrations of analytes to obtain the KD value of the interaction. The experimental parameters are as follows: Baseline1: 60s, Loading: 240s, Baseline2: 180s, Association: 240s, Dissociation: 600s, Loading Response: 1.9-2.1 (nm), High sensitivity kinetics: 2 Hz. Kinetic constants were derived based on 1:1 Langmuir binding to obtain equilibrium dissociation constants (KD).

This is an account of results in patent US20240400715A1 (VIBRANT PHARMA, published 2024).

Numbering of substitutions follows the chain as printed.

B1: bispecific antibody 104 (CEA-Knob+Fab-Hole) (bispecific antibody, human IgG4 S228P, kappa, F234A L235A)
chain: EVQLVESGGGFVQAGESLTLSCTSSTLTFTPYRMAWYRQAPGKQRDLVADISSGDGRTTNYADFAKGRFTISRDNIKNTVFLRMTNLKPEDTAVYYCNTFVSFVGIARSWGQGTQVTVSSESKYGPPCPPCPAPEAAGGPSVFLFPPKPKDTLMISRTPEVTCVVVDVSQEDPEVQFNWYVDGVEVHNAKTKPREEQFNSTYRVVSVLTVLHQDWLNGKEYKCKVSNKGLPSSIEKTISKAKGQPREPQVYTLPPCQEEMTKNQVSLWCLVKGFYPSDIAVEWESNGQPENNYKTTPPVLDSDGSFFLYSRLTVDKSRWQEGNVFSCSVMHEALHNHYTQKSLSLSL
heavy: EVKLLESGGGLVQPKGSLKLSCAASGFTFNTYAMNWVRQAPGKGLEWVARIRSKYNNYATYYADSVKDRFTISRDDSQSILYLQMNNLKTEDTAMYYCVRHGNFGNSYVSWFAYWGQGTLVTVSSASTKGPSVFPLAPCSRSTSESTAALGCLVKDYFPEPVTVSWNSGALTSGVHTFPAVLQSSGLYSLSSVVTVPSSSLGTKTYTCNVDHKPSNTKVDKRVESKYGPPCPPCPAPEAAGGPSVFLFPPKPKDTLMISRTPEVTCVVVDVSQEDPEVQFNWYVDGVEVHNAKTKPREEQFNSTYRVVSVLTVLHQDWLNGKEYKCKVSNKGLPSSIEKTISKAKGQPREPQVCTLPPSQEEMTKNQVSLSCAVKGFYPSDIAVEWESNGQPENNYKTTPPVLDSDGSFFLVSRLTVDKSRWQEGNVFSCSVMHEALHNRFTQKSLSLSL
light: QAVVTQESALTTSPGETVTLTCRSSTGAVTTSNYANWVQEKPDHLFTGLIGGTNKRAPGVPARFSGSLIGDKAALTITGAQTEDEAIYFCALWYSNLWVFGGGTKVEIKRTVAAPSVFIFPPSDEQLKSGTASVVCLLNNFYPREAKVQWKVDNALQSGNSQESVTEQDSKDSTYSLSSTLTLSKADYEKHKVYACEVTHQGLSSPVTKSFNRGEC
notes: Human IgG4 Fc with knob-into-hole, kappa light chain
On to B1, for which, in data set [1], the “EC50 of tumor cell killing, MCF-7 cells with human PBMC (E:T 10:1, 3 days, CCK8)” value worked out at 8.63 nM; the “EC50 of tumor cell killing, MDA-MB-453 cells with human PBMC (E:T 10:1, 3 days, CCK8)” value turned out to be 1.96 nM; the “EC50 of tumor cell killing, N87 cells with human PBMC (E:T 10:1, 3 days, CCK8)” value worked out at 0.0972 nM. In data set [2], the “Absorbance value (450 nm, polyspecificity ELISA)” value (“Absorbance value” for short) was 2.88. In addition, the “BLI-Response (self-interaction signal)” value in data set [3] worked out at 0.22 nm. In data set [4], the “EC50 of tumor cell killing, MDA-MB-468 cells with human PBMC (E:T 10:1, 3 days, CCK8)” value is 0.672 nM; the “EC50 of tumor cell killing, NCI-H1573 cells with human PBMC (E:T 10:1, 3 days, CCK8)” value was 0.00384 nM; the “EC50 of tumor cell killing, SK-OV-3 cells with human PBMC (E:T 10:1, 3 days, CCK8)” value is 0.987 nM. The “Absorbance value” value in data set [5] was found to be 1.08.

B2: HER2-CD3 bispecific antibody 501 (bispecific antibody, human IgG4 S228P, kappa, F234A L235A)
heavy: B1 heavy with C354Y, S359C, S371W, A373L, V412Y, R440H, F441Y
chain: QVQLVQSGGGLVQAGGSLRLSCAASGRTFSSYAMAWFRQAPGKEREFVAAISWSGANIYVADSVKGRFTISRDNAKDTVYLQMNSLKPEDTAVYYCAVKLGFAPVEERQYDYWGQGTQVTVSSESKYGPPCPPCPAPEAAGGPSVFLFPPKPKDTLMISRTPEVTCVVVDVSQEDPEVQFNWYVDGVEVHNAKTKPREEQFNSTYRVVSVLTVLHQDWLNGKEYKCKVSNKGLPSSIEKTISKAKGQPREPQVCTLPPSQEEMTKNQVSLSCAVKGFYPSDIAVEWESNGQPENNYKTTPPVLDSDGSFFLVSRLTVDKSRWQEGNVFSCSVMHEALHNRFTQKSLSLSL
light: B1 light
For orientation: Kd means a measure of binding affinity in units of concentration. The koff is a measure of how fast the partners let go of each other. The term kon denotes the rate constant with which the complex forms. B2: in data set [6], the “EC50 of tumor cell killing, MCF-7 cells with human PBMC (E:T 10:1, 3 days, CCK8)” value was found to be 8.29 nM; the “EC50 of tumor cell killing, MDA-MB-453 cells with human PBMC (E:T 10:1, 3 days, CCK8)” value came to 4.05 nM; the “EC50 of tumor cell killing, N87 cells with human PBMC (E:T 10:1, 3 days, CCK8)” value is 1.32 nM; the “EC50 of tumor cell killing, NCI-H157 cells with human PBMC (E:T 10:1, 3 days, CCK8)” value was determined as 36.2 nM. Besides, the “EC50 of tumor cell killing, NCI-H441 cells with human PBMC (E:T 10:1, 3 days, CCK8)” value in data set [6] is 0.152 nM. In addition, the “Absorbance value” value in data set [2] was found to be 1.52. The “BLI-Response (self-interaction signal)” value in data set [3] worked out at 0.056 nm. Also, in data set [7], the “EC50 of tumor cell killing, MDA-MB-468 cells with human PBMC (E:T 10:1, 3 days, CCK8)” value was 1.79 nM; the “EC50 of tumor cell killing, NCI-H1573 cells with human PBMC (E:T 10:1, 3 days, CCK8)” value is 0.0405 nM; the “EC50 of tumor cell killing, NCI-H1650 cells with human PBMC (E:T 10:1, 3 days, CCK8)” value is 1.59 nM; the “EC50 of tumor cell killing, NCI-H2228 cells with human PBMC (E:T 10:1, 3 days, CCK8)” value was found to be 10.2 nM. In addition, in data set [7], the “EC50 of tumor cell killing, SK-OV-3 cells with human PBMC (E:T 10:1, 3 days, CCK8)” value is 0.0198 nM. The “Absorbance value” value in data set [5] stood at 1.45. In data set [8], the Kd was 13.1 nM, the off-rate (koff) worked out at 0.00349 s⁻¹ and the kon stood at 266000 M⁻¹ s⁻¹.
